Source: the DeepSol protein solubility set

Experiment: soluble on expression in E. coli; label from the status in PepcDB or PDB records

Soluble on expression in E. coli, not soluble:
MASAQPLTALPAIPLPGDAGPVDELAAVIALLQTQPADSTGAATDLAARASALVGAPVTVLDERSGVLAGDPTRVAGQVAAPDGSVALGWGPAADDAERWRPLLTQACVWLSMIRRLDGAPAVEPESVAVREVVQQLLSVRDVDQVLTSIAERTLRLLDADICGVMLREGERVCMRACVGNRVAQTARLRMRRGQGLAGLVFDIGRPAKVDTYLEDRTISPDFMSLAEQEETRSALAVPLRLHGELIGVLEVWRRRPSTFTEHDEHRMVVLADIATVAIDNARLHDEQAASTVEAERARDELQQQVAMLNGSSRLQQKLLTTVIEGGGLPAVVHAVAIELGCEVGVFGPDGAMIATHTPGSTPASLPARLPVRARPATPGRWVRPVYADGDQVGQVVLIQGEASAELMDAVAGQVAMACSLALLRERAASRARAQAVDQVLWDLLQGPVQHRVAARSRAQQLGISLLGSLRVLHGQIENVEELAAEQGWDTSHTDKVRRGVLRAVRGVDEARRLPLTGMRGDLLVAVAADLDRASVKDLAAATCAAIHAEWPGLRLTWGVSRERANPMELPNALSEAETALAAARRLGGRNALLYEELGIVRLLLGSGNDPDLQTFIEEVTGPLIAYDRDNDGALIRTLRAFFDADCSQRVAAERLFVHHKTLRYRLERIRQLTGLDLSRHEDRMRADFALRLLQVNQTSDAIGD
MAGDPMDKNKLFFIETWGCQMNAEDSEKLAGMLKEMKYEATDNREDADLIIFNTCCVRENAELKVYGNLGTLKKLKDKKPNLIITVCGCMMQQRDMAEHIKKRFPFVDIVMGTHNTQMFPQYLKKVENERTSVVEIWDKEEGIVEGMPIYRSYDMKAFVTIMYGCNNFCTYCIVPYVRGRERSRKPEDIENEIKELVKKGYKEITLLGQNVNSYGKSLDEEMNFALLLRRLNNIEGLLRIRFMTSHPKDLTDDVIAAIADCDKVCEHIHLPVQSGSTTILNKMNRNYTREDYINLVNKIKSGIKNVAITTDIIVGFPGETEEDFEDTLSLVKEVEYDSAFTFLYSIREGTPAAKYENQIPDEVKHKRFNKLLEAVNLISEKKNKEYEGKIVEILVEGKSKNDGSKLMGRTRTGKLVNFEGLESSIGKLINVKITKAQAFSLVGEEVLEHHHHHH
MDVLPGRPRARRRRRRRQSRANILAIGVHLPRLRLSRGAMANALGWLSGGAGAGKGSRTLAYWDEDSVTMAVAAARHALARQAAPAIDALQFASTTPPFAEPQNAAFVRAALRLPATTLTQDVHGTPRAGLLALHMALESGTRTLVAAADLPTALPGSTAEARAGDGGAAVLTGDEPGLLRYLGGASLSAPFTDRYRAAGHDYPQEWEERWLREAGYLELVHDAIGRALQAASLRPEQVDHFVLPCPVPGVAAAVAAKAGLGQARLASALAENCGDTGAAHAFVMLGRALEDAAPGQKVLVAQFGQGATALLFEADEAVAGLAAPVSPALRDGLAEDNYMKLLAFRGRIAWDRGLRGRFLVNEALSTAWRNADALLDFVGGRCRETGQVQFPPTRLAATGGFHLDTQEPWPLADRGGRIATFTADLLAFSPCPPNCYGLVDIDGGGRVLMEFTDPQASQLEAGAAVAFALRIKDLDPQTGYRRYFWKALAAPTAD
SEPIAAAPQIPVSEWDNPGIKLQVAPIPRICGMPEVQDMKLITPVRRSARIERTVARYPEMLQEHDVVVASLNELLEVDKTECFIFRENEALPVTLGFEVLES
MTQDDFFDLTPVEDFDSYDPLADTEDEEFDLEAPAESGMFLVEPGEFPTVDELASQAEALQQAPAAQRIATLFDHMERSRKILLGILEMCDGQVQPNELVISRIEKLKANNKSVYTPDNMCMMLVRAGALRRVTQDGTDYEDIEDTLEPKRVVIDGVEYLEPVQAPQICWLTTPEGSQVVAADQPRARLRELLENEPQYRHVFRTVLEMCAPDGGTTQKALSAALDNDPALMHPRMYAMRFAERLAQNDALEWRDNAWRITDIGSEGLDIIAELDAAEQADD
MAHHHHHHMSEQILFDNFPLTFLNKDASEDYEDKNEKTYREKIKNIIEDLKSLRIEINEKYSIRSMLEEKLTLLQKEEQTKENNMKYIMNFSEHNIYEREVLNYQKNIAHLKKQIQTSNSKIKLLLEKEFKVRKQLQINYMNLYDILNERIEYIVENYVKHRKCSCAIYAYKQEKKEE
GDIVAVHPIRRGTAEAIEVVAHGDKKTSAIIGRRISGIKWPEGCHIAAVVRAGTGETIMGHHTETVIQDGDHIIFFVSRRRILNELEKLIQVKMGFFG
MYRAWDPSLTTIDSFLVNELLLHAHPTKTPPEVTEGQTPSSSSSSSTDSGRETMLEEEEAACCDLDSELARIGDENTAEIRELCLPLEIDSRCNLCAIVSICLRRDPQQKWLLDYCFLCHKCAAAPRTAMATLIVATEFLHLMKLHFRDIAFDNIFKERIVTIFDFHAHFFINRCYTQRDEHPVMVENITLAHMAVTRALLTDDDAVPYTKRRKIQYKLPKKPAPAEPEELRLLDKYRRATEGSFARVLFYIWSGTNVMFNTTLTDLAIKKSKALKALKTRQSEIEPSVGPVFLSPIPTFRLRNATTTVCLLCELMACSYRDNVFLQQLRERITNYSRNNLKIIDRTQLTMAEILSHGRNSEFPQQLKNKDVSIYVTSSPETLAAASRPGTEEPFELSALTYLVLRQVGVIGVYKHLFADPLCAANMRSTDPNILFFDVPNEYLNEAKLAICSTNAYPSRVERDFWLYAHMFKAFQIIKRNFKTKTQLSDFLRDFSQVLESHDFSLVDPSFTVEKYV
MEDKLITLAILTYAKAQILKNVLENEGIEAYIHNVNLIQPVISSGVRLRIKESDLPHALQIIESSAWLSEDIIKGKESSSERNKEKRKVLIPIDFSNYSLKACQFGFSFANAINSEVVLLHAYFSPIYVPTIPYGTDNFNFQIEREESVKSMIETVHNELNKLSDTIKKKVESGEFPNIKYTCILRDGIPEEEILRYAKEYNPQIIIMGTRGRSQKDIDLIGSVTAEVIERSKSFVYAIPEHTPLKTFNDIKKVAFVTNFDQRDLIAFDSLINAFKSFHFAVSFIHLSTDNDAWNEIKLAGIKDYFQKQYSKLELYYNVVKEDNILNNLDNYVKEENIDVICITNYKRNIFARLFNPSIARKMIFHANTPILVIK
MGSDKIHHHHHHMTDDSLFLIDVDKILRTKAPKQYKYIPKFVVSYLKKIVHQDEINVFLNESKDKLGVDFLEACMEFLDAKVEVKGIENLPKEGLYTFVSNHPLGGQDGVALGYVLGRHYDGKVKYLVNDLLMNLRGLAPLCVPINKTGKQAKDFPKMVEAGFQSDDQMIMFPAGLCSRRQNGVIRDLEWKKTFIIKSIQAKRDVVPVHFGGRNSDFFYNLANVCKALGIKFNIAMLYLADEMFKNRHKTFTVTFGKPIPWQTFDKSKTPAQWAEYVKDIVYKL
TLINHLKSLKSQVSAKSASETSQTKQNKTFLAFTTVNADQKAIFDVGKLNGKTAKIIINATETTNAKISTLQEKEAIVLKAPQRFESTDPFPI
MGSDKIHHHHHHMKQYLRLRAFKAISFDLDDTLYHNTPYLQLATDKFFAFLNQNYPKTQTLHAQGWLTIKHDLFDLHPELKHDTSAARYAMVHDGLMSLGYKESEASEGAQKSMACFHFYRSDFTLDDKVLNLLKQLAESVTLVGISNGNVDASRIGLSESLAFVQHPGHGVKMKPHGDMFELACQRLNISPAELLHVGDHQMADVSGARRAGCQSVWFNPEKHPLTRRTGSILPHVELDDLNKLLNLV
MGSDKIHHHHHHMTSKLAAVSHIEKIALGLRDQAHAVIKNILMMSDIPTQELQHAMKQLSHQGRVALHFHPDRIDNRGLTVVQGLLRDGIYKSQFETHISNGQLSPELGGPRDHWENQLFGNSYSGIKSRPKYGALDLGLCPLGPAPRFGSCYFLTHSQVLSRCTFSYMDSYRLPKEKGTLSCFDAILAALLSESFERCYALGRQPFKPRDIMAHMACEAKSSVAARFELPGLGNLDHYIEAQIHGDVSLADDIGYLVADPSFKGTETEEYFNQLCSDYQINLHWHNGLTLACDKVPTDFRGAAMPVLAKQIAIDEVIDAKTVGAEAARLQKQPSSWSERGSQAKKTQELKLLWHVLVRFGKPREDNFDNH
MRSIFLLHFDYKTCEEEDFEDWNLADGKCLNGAKYMYKRRKQDARCLVKRTFKDMILHEIPCDSCTESDYECSSEFVRDAKGDCIPDYDQIALSDICDKANGETVSLEPLQLIKGDKCKKPMEIEAMNIPCEKILRESSNGKKIATIENKFDFEI

Soluble on expression in E. coli, soluble:
MSLVSLPKLSAKIIIRLIYIYQIGISPILGHHCRFSITCSQYGINSIRNFGILKGCWKTCIRILKCHPFNKNDNTQEGHHHHHH
MVKSFRMKALIAGAAVAAAVSAGAVSDVPAAKVLQPTAAYAAETVFSQNNGASGFLPGRYDVQAMAPAMFNWSRESRFAGNTDGTLKWQNDIRTTPQNGAGAVIDGDGTVYLHSRDGEMKAFNPDGSVKWVTGNLGKTYTQSPVLGTNGVIYLASYDKKIYFIDKETGEILTTVPLSGGPSSETVIGSDGTLYFSTLDNYVHAIKPTSKSTWTERWKLKTNGVVSSVPVLAKNGTVYVGTYNYVFYAINSGTGQVKWSRTTSNAFKGYPVIDKDGNIYAGNQDGQLYAYTSTGSLKWTFPLNGFSSSSPAIDHNGNIYIGSGSGELFSISKNGDMNWSFYTDGPVRTAPLIDAKGTVYFGSDDMKVYAADANGNELWSYQTDSNVVSSPQLAEDGTLYIGSYTKLMAFGKLEHHHHHH
MVKIRLARFGSKHNPHYRIVVTDARRKRDGKYIEKIGYYDPRKTTPDWLKVDVERARYWLSVGAQPTDTARRLLRQAGVFRQEAREGA
AIALWKLVENVKYEDIYEDRHDGVPSHSSRLSQLGSVSQGPYSSAPPLSHTPSSDFQPPYFPPPYQPLPYHQSQDPYSHVSDPYSLNALHQPQQHPWGSRQRQDLQGTESGGLLPQPRASLPQLSGLDPRRDYSTVRRPDVLLHSTHHGLEAGMGDGLSLHGLAHGMDDVQAVEDLNGAMNILDRTPLGNSRPSPILEPGIQSCLSHFSFITHGFGSPAICAALTALQNYLTEALKGLDKMFLNNPTPNRHTPADGSKGGEKEEKHRK
GSPDPEIFRQRFRQFGYQDSPGPREAVSQLRELCRLWLRPETHTKEQILELVVLEQFVAILPKELQTWVRDHHPENGEEAVTVLEDLESELDD
TLAYKEGFYYKPRIDYELLEKYGEGLIALTACLKGVPTYYASINEVKKAEEWVKKFKDIFGDDLYLELQANNIPEQEVANRNLIEIAKKYDVKLIATQDAHYLNPE
MSLNPRIDYLKSLSTLAAEIYPDIRGVKKLRYNARFCLWGILMPDTLARIQDLLNQPSFHPVRQHYPRTLEKPLKPYVCVKWPPQERAQRLIEHFAFLEKRHAQLLPLIYRHQGWSLFQHELFSIQLCHGPEREGSLALVLLSQDHQPLFTLAFNISGRNKPVIHIGALQGPGPNVENRQEIIRQLTHQLHGLRPKALIMEVLLILARYWCVEKVYGVTNEGHVYQALRYIGSKRSSVRFQYSELWQEMGGEAINPYWHSLPTHPPRKAPLSLSKTKRRLYTKRYAWLTELEQSIQANLQPWDNEIHHEGHHHHHH
MKQIKNTHYEGERPLFASHGLYLEEVTIHAGESALKECSDIEAVNCRFEGKYPFWHNDGFVVKNCLFTEGARAALWYSRNLKMKDTLVEAPKMFREMDGVELENVQLPNALETLWYCRNVELNNVKIDKGDYLFIHGEDIRIKNFVLNGNYSFQYCKNVEIRHAEIHSKDAFWNTENVTVYDSVLDGEYLGWHSKNLRLVNCKISGTQPLCYAHDLIMENCTMADDADLAFEHSSVKATIKGPVHSVKNPRTGNIVAESFGTIILDENLKAPGNCELKLWDGLTCFD
